Data as given in patent publication US20250115664A1.

What was measured:
[1] = target: mouse TIM3 on cells (transfected cells, activated mouse T cells) (mouse) (UniProt Q8VIM0); assay: binding to activated mouse T cells
[2] = target: mouse TIM3 on cells (transfected cells, activated mouse T cells) (mouse) (UniProt Q8VIM0); assay: binding to activated mouse T cells, against TIM3.18 on human TIM3
[3] = target: cynomolgus TIM3 on cells (transfected CHO cells, activated cyno T cells, cyno spleen) (cynomolgus); assay: flow cytometry, cyno TIM3-transfected CHO cells (Geo-MFI); fit value of a flat negative-control curve, far beyond the tested range; unit from the axis label
Sequence of cynomolgus TIM3 on cells (transfected CHO cells, activated cyno T cells, cyno spleen) (cynomolgus) (chain, as listed by the source limits assumed): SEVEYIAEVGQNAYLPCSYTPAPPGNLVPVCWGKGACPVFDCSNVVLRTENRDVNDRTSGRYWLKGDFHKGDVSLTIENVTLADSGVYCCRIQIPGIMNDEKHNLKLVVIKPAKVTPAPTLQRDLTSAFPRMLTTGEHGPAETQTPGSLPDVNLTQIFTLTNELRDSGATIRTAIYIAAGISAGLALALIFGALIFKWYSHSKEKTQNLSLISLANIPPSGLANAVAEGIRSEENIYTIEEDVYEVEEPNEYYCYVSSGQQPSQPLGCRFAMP

[4] = target: human TIM3 on cells (transfected CHO cells, activated human T cells, Th1 cells, TILs) (human) (UniProt Q8TDQ0); assay: flow cytometry, human TIM3-transfected CHO cells (Geo-MFI); fit value of a flat negative-control curve, far beyond the tested range; unit from the axis label

Sequence of mouse TIM3 on cells (transfected cells, activated mouse T cells) (mouse) (Q8VIM0 20-281): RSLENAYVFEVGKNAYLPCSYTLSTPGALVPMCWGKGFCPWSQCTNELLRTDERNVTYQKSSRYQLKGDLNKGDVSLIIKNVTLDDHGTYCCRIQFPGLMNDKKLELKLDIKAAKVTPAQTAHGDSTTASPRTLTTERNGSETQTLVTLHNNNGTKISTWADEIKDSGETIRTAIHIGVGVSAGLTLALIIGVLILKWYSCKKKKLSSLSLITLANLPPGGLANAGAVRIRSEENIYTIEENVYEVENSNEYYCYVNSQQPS

Substance | EC50 [1] [nM] | fold weaker EC50 than TIM3.18 on human TIM3 [2] [fold] | EC50 [3] [mg/mL] | EC50 [4] [mg/mL]
RMT3-23 rat anti-mouse TIM3 antibody | 1.7 | 17 |  | 
hIgG1 (antibody) |  |  | 75.7 | 39.7
hIgG2 (antibody) |  |  | 44.5 | 42.3
hIgG4 (antibody) |  |  | 54.1 | 29.3
